These results are taken from publication PMC10890041.

The target in the experiment is B8(RH)4 ligand: eightfold polymerized B domain from the native Protein A, C-terminally fused with th. Briefly: static batch adsorption on an affinity membrane; Protein A ligand coupled by NHS/EDC (protocol I) to ALA-functionalized ALA@Au_PES200 membrane (6 mm); Trastuzumab 0-0.5 mg/mL in PBS pH 7.4, 1 h, 25 °C, 1000 rpm; supernatant UV-vis at 280 nm, ligand load by direct BCA.

Trastuzumab (antibody) showed a stoichiometry N (antibody per Protein A ligand) of 3.
